Experimental data from article doi:10.1101/2025.03.12.642038, “Structural, biophysical and biological analysis and characterisation of IRF4 DNA-binding domain mutations associated with multiple myeloma”.
Changes are numbered by the printed parent chain.

Key:
Test in all cases: FP; FP: PBS + 0.05% Tween20, 5 nM DNA, 1 h, room temperature; SPR: Biacore S200, SA chip, protein 0.1-4500 nM, running buffer not given in material; errors are SD
[1] = molecular target: T1, IRF4 DBD C99R (Homo sapiens, UniProt Q15306 20-132, C99R); conditions: protein: recombinant; tags: N-terminal His8-linker-His8-TEV, cleaved; label: 3' fluorescein (FAM); hairpin, TTTT loop
T1 sequence: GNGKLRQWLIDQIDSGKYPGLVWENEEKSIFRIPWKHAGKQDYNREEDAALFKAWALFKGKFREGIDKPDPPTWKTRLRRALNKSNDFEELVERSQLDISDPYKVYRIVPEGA

[2] = molecular target: T2, IRF4 DBD C99A (Homo sapiens, UniProt Q15306 20-132, C99A); conditions: protein: recombinant; tags: N-terminal His8-linker-His8-TEV, cleaved; label: 3' fluorescein (FAM); hairpin, TTTT loop
T2 sequence: T1 sequence with R80A

[3] = molecular target: T3, IRF4 DBD D117A (Homo sapiens, UniProt Q15306 20-132, D117A); conditions: protein: recombinant; tags: N-terminal His8-linker-His8-TEV, cleaved; label: 3' fluorescein (FAM); hairpin, TTTT loop
T3 sequence: T1 sequence with R80C, D98A

[4] = molecular target: T4, IRF4 DBD D106Y (Homo sapiens, UniProt Q15306 20-132, D106Y); conditions: protein: recombinant; tags: N-terminal His8-linker-His8-TEV, cleaved; label: 3' fluorescein (FAM); hairpin, TTTT loop
T4 sequence: T1 sequence with R80C, D87Y

[5] = molecular target: T5, IRF4 DBD D117H (Homo sapiens, UniProt Q15306 20-132, D117H); conditions: protein: recombinant; tags: N-terminal His8-linker-His8-TEV, cleaved; label: 3' fluorescein (FAM); hairpin, TTTT loop
T5 sequence: T1 sequence with R80C, D98H

[6] = molecular target: T6, IRF4 DBD L70V (Homo sapiens, UniProt Q15306 20-132, L70V); conditions: protein: recombinant; tags: N-terminal His8-linker-His8-TEV, cleaved; label: 3' fluorescein (FAM); hairpin, TTTT loop
T6 sequence: T1 sequence with L51V, R80C

[7] = molecular target: T7, IRF4 DBD C99S (Homo sapiens, UniProt Q15306 20-132, C99S); conditions: protein: recombinant; label: 3' fluorescein (FAM); hairpin, TTTT loop
T7 sequence: T1 sequence with R80S

[8] = molecular target: T8, IRF4 DBD S114N (Homo sapiens, UniProt Q15306 20-132, S114N); conditions: protein: recombinant; tags: N-terminal His8-linker-His8-TEV, cleaved; label: 3' fluorescein (FAM); hairpin, TTTT loop
T8 sequence: T1 sequence with R80C, S95N

[9] = molecular target: T9, IRF4 DBD T95A (Homo sapiens, UniProt Q15306 20-132, T95A); conditions: protein: recombinant; tags: N-terminal His8-linker-His8-TEV, cleaved; label: 3' fluorescein (FAM); hairpin, TTTT loop
T9 sequence: T1 sequence with T76A, R80C

[10] = molecular target: T10, IRF4 DBD K59R (Homo sapiens, UniProt Q15306 20-132, K59R); conditions: protein: recombinant; tags: N-terminal His8-linker-His8-TEV, cleaved; label: 3' fluorescein (FAM); hairpin, TTTT loop
T10 sequence: T1 sequence with K40R, R80C

## CTTGGTTTCACTTCCTGCGTTTTCGCAGGAAGTGAAACCAAG (structured_DNA) [IRE hairpin (FAM)]
[1]
  Kd: 279 ± 286 nM
[2]
  Kd: 353 ± 169 nM
[3]
  Kd: 109 ± 31 nM
[4]
  Kd: 219 ± 261 nM
[5]
  Kd: 131 ± 28 nM
[6]
  Kd: 127 ± 27 nM
[7]
  Kd: 243 ± 238 nM
[8]
  Kd: 181 ± 14 nM
[9]
  Kd: 105 ± 59 nM
[10]
  Kd: 350 ± 275 nM
